Source: patent publication US20070105162A1, “Monovalent avidin and streptavidin compositions” (Massachusetts Institute of Technology, priority 2005, published 2007)

Experiment: Biotin binding of avidin triple mutant (D4)
Experimental: After incubation at room temperature for 20 hr, the protein is precipitated by adding 50 μL to 200 μL 0.2 M ZnSO4 followed by 200 μL 0.2 M NaOH. The protein precipitate is pelleted by centrifugation at 16,500 g for 5 min. The biotin bound by D4 is calculated from the total ^3H-biotin added minus the ^3H-biotin in the supernatant. The Kd is obtained using a nonlinear regression analysis (one-site binding hyperbola) with SigmaPlot (Systat Software; Point Richmond, Calif.).
Methods provided in the Methods section above are used to make and test the monovalent avidin. We produce an avidin tetramer consisting of three subunits unable to bind biotin and one subunit that binds biotin as well as wild-type avidin. A triple mutant N12A, S16D, T35A is produced. […] The binding of this triple mutant (composed of “Dead” subunits-D) is so weak that it is difficult to measure. To generate monovalent avidin the wild-type subunit is first tagged with a His6-tag (“Alive” subunit-A). Then D and A subunits are combined at a molar ratio of 3:1 in guanidinium hydrochloride and refolded by rapidly diluting the mixture into PBS. This refold generates a mix of avidin tetramers of different compositions.

biotin binding of avidin triple mutant: negligible biotin binding
B1: D4 avidin: Avidin tetramer of four Dead subunits (N12A, S16D, T35A, SEQ ID NO:18) (protein)
chain: ARKCSLTGKWTADLGDNMTIGAVNSRGEFTGTYIAAVTATSNEIKESPLHGTQNTINKRTQPTFGFTVNWKFSESTTVFTGQCFIDRNGKEVLKTMWLLRSSVNDIGDDWKATRVGINIFTRLRTQKE
modifications: tetramer
